Data taken from paper PMC9482650, “Quantitative fragmentomics allow affinity mapping of interactomes” (Nature Communications, 2022).

Columns and labels:
Experiment in all cases: holdup assay
Set-up in all cases: key: below the threshold = too weak to quantify, mostly under pKd 3.1 to 4
FRMPD2_2, Q68DX3 = target: FRMPD2_2, Q68DX3
TJP2_1, Q9UDY2 = target: TJP2_1, Q9UDY2
TX1BP3, O14907 = target: T1, TX1BP3, O14907
T1 sequence (O14907 10-122, limits assumed, looked up): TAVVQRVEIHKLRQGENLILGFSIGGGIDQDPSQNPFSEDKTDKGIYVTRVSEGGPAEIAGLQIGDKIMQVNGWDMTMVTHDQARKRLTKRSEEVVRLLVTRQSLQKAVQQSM

Inadl_3, Q8NI35 = target: Inadl_3, Q8NI35
SNTB1, Q13884 = target: T2, SNTB1, Q13884
T2 sequence (Q13884 107-205, limits assumed, looked up): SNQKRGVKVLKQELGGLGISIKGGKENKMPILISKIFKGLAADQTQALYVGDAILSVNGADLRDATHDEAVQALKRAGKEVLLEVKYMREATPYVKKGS

PTPN3, P26045 = target: PTPN3, P26045
DLG3_2, Q92796 = target: T3, DLG3_2, Q92796
T3 sequence (Q92796 221-321, limits assumed, looked up): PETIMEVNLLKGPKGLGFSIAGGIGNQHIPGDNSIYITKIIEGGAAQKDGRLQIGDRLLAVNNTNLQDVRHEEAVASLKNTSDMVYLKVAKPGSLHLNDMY

LNX2_2, Q8N448 = target: T4, LNX2_2, Q8N448
T4 sequence (Q8N448 334-432, limits assumed, looked up): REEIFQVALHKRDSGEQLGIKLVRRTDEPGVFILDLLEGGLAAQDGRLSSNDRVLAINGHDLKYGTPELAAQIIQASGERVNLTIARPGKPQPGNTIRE

FRMPD1, Q5SYB0 = target: T5, FRMPD1, Q5SYB0
T5 sequence (Q5SYB0 52-145, limits assumed, looked up): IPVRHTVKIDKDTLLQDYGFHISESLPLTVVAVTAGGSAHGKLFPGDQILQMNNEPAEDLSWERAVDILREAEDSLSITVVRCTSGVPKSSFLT

SCRIB_3, Q14160 = target: SCRIB_3, Q14160
RAPGEF6, Q8TEU7 = target: T6, RAPGEF6, Q8TEU7
T6 sequence (Q8TEU7 525-625, limits assumed, looked up): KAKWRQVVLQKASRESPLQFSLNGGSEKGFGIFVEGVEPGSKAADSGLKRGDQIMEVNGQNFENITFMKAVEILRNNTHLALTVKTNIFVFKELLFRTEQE

MAGI2_5, Q86UL8 = target: MAGI2_5, Q86UL8
GOPC, Q9HD26 = target: GOPC, Q9HD26
Inadl_8, Q8NI35 = target: Inadl_8, Q8NI35
MPDZ_12, O75970 = target: T7, MPDZ_12, O75970
T7 sequence (O75970 1857-1958, limits assumed, looked up): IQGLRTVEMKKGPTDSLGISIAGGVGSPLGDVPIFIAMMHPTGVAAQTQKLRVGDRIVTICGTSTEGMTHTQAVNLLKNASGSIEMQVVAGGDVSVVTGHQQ

MAST2, Q6P0Q8 = target: MAST2, Q6P0Q8
MAST1, Q9Y2H9 = target: MAST1, Q9Y2H9
Inadl_6, Q8NI35 = target: Inadl_6, Q8NI35
GORASP2, Q9H8Y8 = target: GORASP2, Q9H8Y8
GRIP1_5, Q9Y3R0 = target: T8, GRIP1_5, Q9Y3R0
T8 sequence (Q9Y3R0 568-668, limits assumed, looked up): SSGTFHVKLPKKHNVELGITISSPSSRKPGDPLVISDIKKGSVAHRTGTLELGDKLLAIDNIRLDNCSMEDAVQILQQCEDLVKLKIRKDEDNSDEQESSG

DLG4_1, P78352 = target: DLG4_1, P78352
DLG3_1, Q92796 = target: T9, DLG3_1, Q92796
T9 sequence (Q92796 125-227, limits assumed, looked up): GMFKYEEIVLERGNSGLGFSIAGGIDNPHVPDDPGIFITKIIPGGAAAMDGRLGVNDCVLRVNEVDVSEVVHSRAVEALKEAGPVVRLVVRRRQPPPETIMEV

FRMPD2_1, Q68DX3 = target: FRMPD2_1, Q68DX3
PARD3B_1, Q8TEW8 = target: T10, PARD3B_1, Q8TEW8
T10 sequence (Q8TEW8 196-299, limits assumed, looked up): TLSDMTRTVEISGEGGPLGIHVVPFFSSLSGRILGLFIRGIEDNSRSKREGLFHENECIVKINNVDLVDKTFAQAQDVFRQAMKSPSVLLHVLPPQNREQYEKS

HTRA2, O43464 = target: HTRA2, O43464
MAGI2_4, Q86UL8 = target: MAGI2_4, Q86UL8
PICK1, Q9NRD5 = target: PICK1, Q9NRD5
[1] = plain residues with an end cap or a label only (N-terminal biotin on a linker: (peg)3)
[2] = plain residues with an end cap or a label only (N-terminal biotin on a linker: ado-ado)

Sequence of MAST2, Q6P0Q8 (Q6P0Q8 1099-1202): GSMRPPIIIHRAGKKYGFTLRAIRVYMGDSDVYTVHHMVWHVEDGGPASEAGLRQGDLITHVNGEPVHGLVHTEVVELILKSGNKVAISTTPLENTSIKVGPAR
Sequence of MAGI2_4, Q86UL8 (Q86UL8 772-865): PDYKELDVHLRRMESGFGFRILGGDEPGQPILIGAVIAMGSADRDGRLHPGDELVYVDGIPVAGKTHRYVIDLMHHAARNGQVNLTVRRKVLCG
Sequence of TJP2_1, Q9UDY2 (Q9UDY2 24-128): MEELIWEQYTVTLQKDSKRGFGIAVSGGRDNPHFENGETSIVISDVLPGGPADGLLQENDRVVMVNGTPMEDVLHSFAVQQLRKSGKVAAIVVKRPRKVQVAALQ
Sequence of PICK1, Q9NRD5 (Q9NRD5 17-115): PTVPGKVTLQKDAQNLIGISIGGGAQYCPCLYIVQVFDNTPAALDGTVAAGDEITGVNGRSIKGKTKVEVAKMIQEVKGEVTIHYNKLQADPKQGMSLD
Sequence of MAST1, Q9Y2H9 (Q9Y2H9 962-1065): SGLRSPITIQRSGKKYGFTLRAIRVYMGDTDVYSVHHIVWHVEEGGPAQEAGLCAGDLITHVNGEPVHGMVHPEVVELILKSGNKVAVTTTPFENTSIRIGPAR
Sequence of HTRA2, O43464 (O43464 355-458): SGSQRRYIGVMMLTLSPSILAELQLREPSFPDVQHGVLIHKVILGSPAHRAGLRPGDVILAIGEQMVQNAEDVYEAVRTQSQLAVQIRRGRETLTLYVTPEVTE
Sequence of Inadl_6, Q8NI35 (Q8NI35 1058-1167): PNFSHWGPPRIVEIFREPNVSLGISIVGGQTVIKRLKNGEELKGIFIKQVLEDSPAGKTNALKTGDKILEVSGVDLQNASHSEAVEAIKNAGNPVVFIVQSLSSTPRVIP
Sequence of Inadl_8, Q8NI35 (Q8NI35 1425-1530): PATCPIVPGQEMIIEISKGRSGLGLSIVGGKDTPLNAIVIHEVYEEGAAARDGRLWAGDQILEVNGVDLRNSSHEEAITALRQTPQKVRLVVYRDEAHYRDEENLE
Sequence of MAGI2_5, Q86UL8 (Q86UL8 915-1017): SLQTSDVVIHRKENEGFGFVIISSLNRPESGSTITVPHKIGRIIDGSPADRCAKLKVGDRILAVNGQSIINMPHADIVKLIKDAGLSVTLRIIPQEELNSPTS
Sequence of FRMPD2_2, Q68DX3 (Q68DX3 944-1038): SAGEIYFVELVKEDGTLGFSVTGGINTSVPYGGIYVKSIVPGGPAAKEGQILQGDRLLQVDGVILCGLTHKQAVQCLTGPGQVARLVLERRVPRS
Sequence of Inadl_3, Q8NI35 (Q8NI35 359-469): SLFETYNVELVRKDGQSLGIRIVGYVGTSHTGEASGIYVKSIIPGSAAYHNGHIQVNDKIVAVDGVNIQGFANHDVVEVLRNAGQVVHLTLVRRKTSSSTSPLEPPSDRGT
Sequence of SCRIB_3, Q14160 (Q14160 999-1103): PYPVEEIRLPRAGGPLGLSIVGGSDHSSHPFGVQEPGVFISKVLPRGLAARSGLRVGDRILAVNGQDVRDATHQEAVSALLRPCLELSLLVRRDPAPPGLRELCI
Sequence of DLG4_1, P78352 (P78352 62-152): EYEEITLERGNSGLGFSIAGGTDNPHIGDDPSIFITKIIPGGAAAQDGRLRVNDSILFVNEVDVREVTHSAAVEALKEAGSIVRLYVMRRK
Sequence of PTPN3, P26045 (P26045 505-587): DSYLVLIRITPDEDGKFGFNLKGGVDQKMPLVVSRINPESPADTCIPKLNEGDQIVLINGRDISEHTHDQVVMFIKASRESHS
Sequence of FRMPD2_1, Q68DX3 (Q68DX3 770-861): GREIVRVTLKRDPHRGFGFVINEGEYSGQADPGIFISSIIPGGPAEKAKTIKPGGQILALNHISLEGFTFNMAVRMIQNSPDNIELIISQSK

B1: SARS-Cov2-3a, P0DTC3 (peptide)
chain: YDEPTTTTSVPL
pKd (FRMPD2_2, Q68DX3; [1]): below the threshold
pKd (TJP2_1, Q9UDY2; [1]): below the threshold
pKd (TX1BP3, O14907; [1]): below the threshold
pKd (Inadl_3, Q8NI35; [1]): below the threshold
pKd (SNTB1, Q13884; [1]): below the threshold
pKd (PTPN3, P26045; [1]): below the threshold
pKd (DLG3_2, Q92796; [1]): below the threshold
pKd (LNX2_2, Q8N448; [1]): below the threshold
pKd (FRMPD1, Q5SYB0; [1]): below the threshold
pKd (SCRIB_3, Q14160; [1]): below the threshold
pKd (RAPGEF6, Q8TEU7; [1]): below the threshold
pKd (MAGI2_5, Q86UL8; [1]): below the threshold
pKd (GOPC, Q9HD26; [1]): below the threshold
pKd (Inadl_8, Q8NI35; [1]): below the threshold
pKd (MPDZ_12, O75970; [1]): below the threshold
pKd (MAST2, Q6P0Q8; [1]): below the threshold
pKd (MAST1, Q9Y2H9; [1]): below the threshold
pKd (Inadl_6, Q8NI35; [1]): below the threshold
pKd (GORASP2, Q9H8Y8; [1]): below the threshold
pKd (GRIP1_5, Q9Y3R0; [1]): below the threshold
pKd (DLG4_1, P78352; [1]): below the threshold
pKd (DLG3_1, Q92796; [1]): below the threshold
pKd (FRMPD2_1, Q68DX3; [1]): below the threshold
pKd (PARD3B_1, Q8TEW8; [1]): 4.12
pKd (HTRA2, O43464; [1]): below the threshold
pKd (MAGI2_4, Q86UL8; [1]): below the threshold
pKd (PICK1, Q9NRD5; [1]): below the threshold

B2: PLEKHH2, Q8IVE3 (peptide)
chain: SRPTKGPTLL
pKd (FRMPD2_2, Q68DX3; [2]): below the threshold
pKd (TJP2_1, Q9UDY2; [2]): 3.57
pKd (TX1BP3, O14907; [2]): 4.01
pKd (Inadl_3, Q8NI35; [2]): below the threshold
pKd (SNTB1, Q13884; [2]): below the threshold
pKd (PTPN3, P26045; [2]): 4.02
pKd (DLG3_2, Q92796; [2]): below the threshold
pKd (LNX2_2, Q8N448; [2]): below the threshold
pKd (FRMPD1, Q5SYB0; [2]): below the threshold
pKd (SCRIB_3, Q14160; [2]): 4.41
pKd (RAPGEF6, Q8TEU7; [2]): below the threshold
pKd (MAGI2_5, Q86UL8; [2]): below the threshold
pKd (GOPC, Q9HD26; [2]): below the threshold
pKd (Inadl_8, Q8NI35; [2]): 3.61
pKd (MPDZ_12, O75970; [2]): below the threshold
pKd (MAST2, Q6P0Q8; [2]): 5.06
pKd (MAST1, Q9Y2H9; [2]): below the threshold
pKd (Inadl_6, Q8NI35; [2]): below the threshold
pKd (GORASP2, Q9H8Y8; [2]): 3.6
pKd (GRIP1_5, Q9Y3R0; [2]): below the threshold
pKd (DLG4_1, P78352; [2]): 3.91
pKd (DLG3_1, Q92796; [2]): below the threshold
pKd (FRMPD2_1, Q68DX3; [2]): below the threshold
pKd (PARD3B_1, Q8TEW8; [2]): 4.41
pKd (HTRA2, O43464; [2]): below the threshold
pKd (MAGI2_4, Q86UL8; [2]): below the threshold
pKd (PICK1, Q9NRD5; [2]): below the threshold

B3: APBA1, Q02410 (peptide)
chain: LTAQEQPVYI
pKd (FRMPD2_2, Q68DX3; [2]): below the threshold
pKd (TJP2_1, Q9UDY2; [2]): below the threshold
pKd (TX1BP3, O14907; [2]): below the threshold
pKd (Inadl_3, Q8NI35; [2]): below the threshold
pKd (SNTB1, Q13884; [2]): below the threshold
pKd (PTPN3, P26045; [2]): 3.61
pKd (DLG3_2, Q92796; [2]): 4.06
pKd (LNX2_2, Q8N448; [2]): 4.9
pKd (FRMPD1, Q5SYB0; [2]): below the threshold
pKd (SCRIB_3, Q14160; [2]): below the threshold
pKd (RAPGEF6, Q8TEU7; [2]): below the threshold
pKd (MAGI2_5, Q86UL8; [2]): below the threshold
pKd (GOPC, Q9HD26; [2]): below the threshold
pKd (Inadl_8, Q8NI35; [2]): below the threshold
pKd (MPDZ_12, O75970; [2]): below the threshold
pKd (MAST2, Q6P0Q8; [2]): below the threshold
pKd (MAST1, Q9Y2H9; [2]): 3.58
pKd (Inadl_6, Q8NI35; [2]): below the threshold
pKd (GORASP2, Q9H8Y8; [2]): 4.18
pKd (GRIP1_5, Q9Y3R0; [2]): below the threshold
pKd (DLG4_1, P78352; [2]): below the threshold
pKd (DLG3_1, Q92796; [2]): below the threshold
pKd (FRMPD2_1, Q68DX3; [2]): below the threshold
pKd (PARD3B_1, Q8TEW8; [2]): 5
pKd (HTRA2, O43464; [2]): 3.53
pKd (MAGI2_4, Q86UL8; [2]): below the threshold
pKd (PICK1, Q9NRD5; [2]): below the threshold

B4: GJD2, Q9UKL4 (peptide)
chain: RTQSSDSAYV
pKd (FRMPD2_2, Q68DX3; [2]): below the threshold
pKd (TJP2_1, Q9UDY2; [2]): 4.09
pKd (TX1BP3, O14907; [2]): below the threshold
pKd (Inadl_3, Q8NI35; [2]): below the threshold
pKd (SNTB1, Q13884; [2]): below the threshold
pKd (PTPN3, P26045; [2]): 3.52
pKd (DLG3_2, Q92796; [2]): below the threshold
pKd (LNX2_2, Q8N448; [2]): 4.65
pKd (FRMPD1, Q5SYB0; [2]): below the threshold
pKd (SCRIB_3, Q14160; [2]): below the threshold
pKd (RAPGEF6, Q8TEU7; [2]): below the threshold
pKd (MAGI2_5, Q86UL8; [2]): below the threshold
pKd (GOPC, Q9HD26; [2]): below the threshold
pKd (Inadl_8, Q8NI35; [2]): 3.7
pKd (MPDZ_12, O75970; [2]): below the threshold
pKd (MAST2, Q6P0Q8; [2]): 4.17
pKd (MAST1, Q9Y2H9; [2]): below the threshold
pKd (Inadl_6, Q8NI35; [2]): below the threshold
pKd (GORASP2, Q9H8Y8; [2]): 3.78
pKd (GRIP1_5, Q9Y3R0; [2]): below the threshold
pKd (DLG4_1, P78352; [2]): below the threshold
pKd (DLG3_1, Q92796; [2]): below the threshold
pKd (FRMPD2_1, Q68DX3; [2]): 3.66
pKd (PARD3B_1, Q8TEW8; [2]): 4.63
pKd (HTRA2, O43464; [2]): below the threshold
pKd (MAGI2_4, Q86UL8; [2]): below the threshold
pKd (PICK1, Q9NRD5; [2]): below the threshold
